Data on one molecule can be found in PMC10208982, “Structural basis of catalytic activation in human splicing” (Nature, 2023).

The target in the experiment is T1, PRP2(137–1022) (human, UniProt O60231 137-1022).
T1 construct: comprises the modelled NTD (pin, clip, hook) and the helicase core; The tag can be cleaved off with HRV-3C protease; also called recombinant PRP2; source: Sf9 or Hi5 insect cells, purified (Strep-Tactin, then SEC or Q Sepharose); also co-expressed with PPIL4 in Sf9, in lysate; not shown: Twin-StrepII, N-terminal, kept
T1 sequence (looked up): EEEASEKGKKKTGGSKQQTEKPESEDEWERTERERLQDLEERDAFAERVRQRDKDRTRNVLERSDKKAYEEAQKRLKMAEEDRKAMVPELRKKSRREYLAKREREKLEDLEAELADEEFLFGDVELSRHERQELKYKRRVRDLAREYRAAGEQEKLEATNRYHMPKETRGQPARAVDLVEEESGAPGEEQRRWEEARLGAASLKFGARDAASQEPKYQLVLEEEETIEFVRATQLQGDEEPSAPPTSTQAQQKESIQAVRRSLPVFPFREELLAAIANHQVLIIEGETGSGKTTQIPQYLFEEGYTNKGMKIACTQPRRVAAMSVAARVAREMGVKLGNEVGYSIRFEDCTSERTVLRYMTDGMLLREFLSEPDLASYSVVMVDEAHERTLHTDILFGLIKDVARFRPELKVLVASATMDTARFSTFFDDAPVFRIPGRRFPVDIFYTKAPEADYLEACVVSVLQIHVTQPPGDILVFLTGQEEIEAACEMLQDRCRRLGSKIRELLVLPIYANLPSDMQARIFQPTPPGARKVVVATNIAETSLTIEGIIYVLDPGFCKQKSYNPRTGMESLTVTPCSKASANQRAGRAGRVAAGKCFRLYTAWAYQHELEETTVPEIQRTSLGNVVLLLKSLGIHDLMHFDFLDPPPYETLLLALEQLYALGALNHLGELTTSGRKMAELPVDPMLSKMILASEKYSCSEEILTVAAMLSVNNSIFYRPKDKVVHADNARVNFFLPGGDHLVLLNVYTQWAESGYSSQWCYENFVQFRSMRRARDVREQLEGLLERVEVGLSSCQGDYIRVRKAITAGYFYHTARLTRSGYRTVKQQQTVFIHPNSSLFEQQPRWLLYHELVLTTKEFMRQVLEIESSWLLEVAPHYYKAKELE
The experiment can be described thus: SEC; around 30 μg PRP2(137–1022) mixed with a 5-fold excess of cofactor in 100 μl, 1 h on ice; Superdex 200 Increase 10/300 GL; 20 mM HEPES-KOH pH 7.5, 100 mM KCl, 1.5 mM MgCl2, 5% glycerol; fractions analysed by SDS-PAGE. Conditions: both partners purified. (In general: In gel filtration, larger molecules generally elute earlier.)

B1: GPKOW (natural protein, human, UniProt Q92917 1-476, looked up)
chain: MADSKEGVLPLTAASTAPISFGFTRTSARRRLADSGDGAGPSPEEKDFLKTVEGRELQSVKPQEAPKELVIPLIQNGHRRQPPARPPGPSTDTGALADGVVSQAVKELIAESKKSLEERENAGVDPTLAIPMIQKGCTPSGEGADSEPRAETVPEEANYEAVPVEAYGLAMLRGMGWKPGEGIGRTFNQVVKPRVNSLRPKGLGLGANLTEAQALTPTGPSRMPRPDEEQEKDKEDQPQGLVPGGAVVVLSGPHRGLYGKVEGLDPDNVRAMVRLAVGSRVVTVSEYYLRPVSQQEFDKNTLDLRQQNGTASSRKTLWNQELYIQQDNSERKRKHLPDRQDGPAAKSEKAAPRSQHWLHRDLRVRFVDNMYKGGQYYNTKMIIEDVLSPDTCVCRTDEGRVLEGLREDMLETLVPKAEGDRVMVVLGPQTGRVGHLLSRDRARSRALVQLPRENQVVELHYDAICQYMGPSDTDDD
notes: human GPKOW, codon-optimized synthetic gene (GeneArt); also called PRP2 cofactor GPKOW; source: Sf9 or Hi5 insect cells, purified (Strep-Tactin, SEC); not shown: Twin-StrepII, N-terminal, kept
As for B1, the binding result is given as “binds”.
